Assay: soluble on expression in E. coli; label from the status in PepcDB or PDB records

Soluble on expression in E. coli, not soluble:
MGSDKIHHHHHHMVNSLTTPEPQTLKPGVKAPVQETLLTPRFYTTDFDAVANLDISANEAEIRAVVEELRADYNRHHFVRDEEFKQSWDHITGEKRRAFIDFLERSCTSEFSGFLLFKELSRRIKSRNPLLAEAFEFMARDEARHAGFLNKSMSDLNLSLDLNYLTKNRTYTFFPPEWVIYTVYLSEKIGYWRYILVHQHMQEHPEYQFYPLFRKFESWCQDENRHGDFFKALLRSQPQLWKNWKARLWVRFFLLTVFVTHTMTVFERASFYESIGIHPRKYNNRVIQETNNTSARAFPLILNTNHPLFFWRLEQCWENNMKLAAIKNNKLPNFVKFFQRIPPATAIFWNMLRLFLIKPIDTEATRGTVL
MGSDKIHHHHHHMVVILSERAFSRRDQTGAEVMLNRRRFLTNAATAAAATLWVSKGGMQARAEEAGNGSPWRRFEIITKVDLQPAEGPAQLWLPVVRSAGDYQKADAPLWVSNSTDIRMEKDPSSGADILRVMWEDEPRRVIEVTQHVATRDRRVTSKIAATEAELQHELRGTPSMPVDGIVKTTAMRIVEGRDRAEDRARAIYDWVIDNTFRDANIDGCGVGNARDMLETGYFGGKCADISSLFVSLARAAGLPARDVFGIRVADSADFKSLGRSGDITKAQHCRAEVYLDAHGWVPVDPADVRKVVLEENLPLDNPAVRAFREKAYGNWEMNWVGYNTARDLVLPGGELRQGFLMYPAAVTSRGELDCLNPQTFAYSITSREITA
MGSDKIHHHHHHMVVLMTKPGTSDFVWNGIPLSMELNLWNIKEYSGSVAMKFDGEKITFDADIQNLSPKEPERYVLGYPEFYYGYKPWENHTAEGSKLPVPVSSMKSFSVEVSFDIHHEPSLPLNFAMETWLTREKYQTEASIGDVEIMVWFYFNNLTPGGEKIEEFTIPFVLNGESVEGTWELWLAEWGWDYLAFRLKDPVKKGRVKFDVRHFLDAAGKALSSSARVKDFEDLYFTVWEIGTEFGSPETKSAQFGWKFENFSIDLEVRE
MGSDKIHHHHHHMWIWQQADWPKFHWNTSSIDALLRQVYFNQGQLLGKQMLSHDDSLLTSDAALDTLLANIIHSSAIEGEKLNAASVRSSLAKKLGVTEDKPYPTTAQTDGLADIMLDALKNLETELTLERILGWHQQLFPQGYTLFNPVIGGTLRGDTPMQVVSGRIDKPTVHFEAPSRATLDAELSQFIEWFNASRQDLGLDPLIRAAITHLWFVTLHPLDDGNGRITRLLTDLALAQAEKRSIRFYAMSVSILARRQAYYDILESTQRGDVDITPWLVWFFETLNDCLLNAMADVSRTLSKTQYWQSVDQSLLSQEQAKVLNRMLDGDFELGINSSQYQKVAKVSRATATRHLAQMVEQRFLVKADAGGRSTRYLLPSGK
MGSDKIHHHHHHMWTPDALSSEVRPYRQDVWRVVEAQSRASTMRLVDSLEEQRLLEDLIDEVKPPVPPSCRQFHYLLSTPFRYGPYPTGSRFRRAGQQDGVFYASESVETAIAELAFYRLLFFVESPGTDLPARPTDHMAFSVPCVADRLIDLTLPPLAQDEAKWVNRLDYTACQDLADIARSARIEAIRYRSVRDPDGGCNLGVLTPAALGATKPQRLETWRLFIRPTGIQVAREFPRAEREFTCADFGADPRLDPFWIRP
MGSDKIHHHHHHMYLALIGDIINSKQILERETFQQSFQQLMTELSDVYGEELISPFTITAGDEFQALLKPSKKVFQIIDHIQLALKPVNVRFGLGTGNIITSINSNESIGADGPAYWHARSAINHIHDKNDYGTVQVAICLDDEDQNLELTLNSLISAGDFIKSKWTTNHFQMLEHLILQDNYQEQFQHQKLAQLENIEPSALTKRLKASGLKIYLRTRTQAADLLVKSCTQTKGGSYDF
MGSDKIHHHHHHMYLESIELYSNITKAAAHLFISQPYLSKVIKQLENELEIKLIQSQGHQTFLTYAGQRYLFYLKEIDMIERQMAKELYLIRSDKKGEITLGINSGLASSILANVLPKFNLEHPEISVKLLENNQNISEQLVASGDIDLAVGMAPILYKDGIASTTIYRDELFLMIPTTSQLYNAEKRGQIIPFEYPISVLDNEPLILTPLEYGIGKTIAQFYELHHMSLNQMITTSTVPTAASLSLSGMGATFVPQTLIHRYLDKECNVYHFHKNKLFSEYIMIYKKDVELSGIALLLYKAFLTK
MGSDKIHHHHHHMYPFVDRKEELKALKERLTRENFELIVIYGRRRVGKTRLVLEAVRDLPHVYYLAVEGNNLRHFRETAERVFPEVRYSREDWEGTLHALKGKIIVIDEFPNLIKENPRVLSLFQRVIDLDLSNSNTKMILLGSSVSMMTEKVLSYKSPLYGRRTGSMKLKPMGFFSLRVFFPTASWEELVEIYGMTDGIPFYITQVKLPFWEWLEEELSSPVSFFRDEVDFLLKYEFSEVSTYKRILEAIALGKTTPKEIRDFTGLRHSDISPYLRNLIEADLIVREVPVTEKGTSKRGRYYIADNFLAFWFRFIFPNLSRIEEGTFSVEEIRDSYDHYLGLVFEKVARQFLVKLNKAGNLPFKFTKIGRWWHKNEEIDLVALNEREKRALFVEVKWKSLSGREARGILWDLERKSELVGLEGWEKHYGLVAKEIRNKNALKSEGWLVWDLGDFERLISPGEISYL
MGSDKIHHHHHHNENPDKPTDDVNYNMNEPRLASTLRGGLIIEGNVEQRLKPLQIDFYSQMTVDGGGWGTKNYIQDDEWNNLVWEEYLKQIASINIVIRSLTEKDKDAYANTIAFARIWRVYVHTLAADKFGPMPFPAYEIVEANPPYKSLKDIYDEYFRELDAAINGFNDSAQPIFSDAGIDLIYKNDVSKWKRFANSLRLRLAVRLTEVDQEKCIAEANAAISSPAGLISDKADNAYMPPKADGSWGQDYNYTMFQITWSGPICMSKSVEKLVTNIGGVAWPQGVVNQTSGVAVSSVHPEKVDPRAPKIFQPGIENGDWKGLVYGPKAEEANTGIYQSKQCAELGFIIKDGYPYKSRPYDLFLSEEVHFLKAELYARGFIAGDAKSEYEAGVRASFATWGVTSEVDDYLTSTEKNEAGTSARYDDQQGAGNTALEKIITQKYIAGIPDLAQEGWNDKRRLNLPRLDVAVYRDQAVYNNNDKDILKSANFIKRMRYPTKESLINATEYEKGKSMLGGKGDIVSTPLWWDKNSNYCTSSK
MGSDKIHHHHHHNKIPTTMAFRTVTDVDNAVNGLYDLMSGSGYYGAAMFAYGDMKGDDMQSSEESGVCNTCYMFNHRPNSLNAGSLWGRPFYILREAWNILNAIAEGKIESGDEKKLNALKGETMAVIALCQFDLTRCFGYPYTKDKGASLGAPLIDHLVGTYENPPRSTVAQAYDFIIETLEEAVTLMSEEKNNGRMNKYAARALLARIYLYHDDNRKAFDLADQLIKDADTSGSYALYPHEKYVAAWSVEAKFGSESFFEIANSVDDTPGRDSWGYLLNWYGYQKGFVTQKYAEQMLADPGDVRGHLLEENKYAGKTVWWLYKLRGTDLKTAPLECNNVVLRLSEVYLIAAEAGCKLGGDAAVQGLGYLNEIVKRGNPDNEVTMADYTLDRVLDERSKELVGEGHRFFDLLRNGKTIVRKGGYHLPSVDEEVDWDFYKCVLPIPEDQFIFSPEMEQNPGYPKN
MGSDKIHHHHHHNQFSVKCWLRYIEFKQGAPKPRLNQLYERALKLLPCSYKLWYRYLKARRAQVKHRCVTDPAYEDVNNCHERAFVFMHKMPRLWLDYCQFLMDQGRVTHTRRTFDRALRALPITQHSRIWPLYLRFLRSHPLPETAVRGYRRFLKLSPESAEEYIEYLKSSDRLDEAAQRLATVVNDERFVSKAGKSNYQLWHELCDLISQNPDKVQSLNVDAIIRGGLTRFTDQLGKLWCSLADYYIRSGHFEKARDVYEEAIRTVMTVRDFTQVFDSYAQFEESMIAAKMETASELGREEEDDVDLELRLARFEQLISRRPLLLNSVLLRQNPHHVHEWHKRVALHQGRPREIINTYTEAVQTVDPFKATGKPHTLWVAFAKFYEDNGQLDDARVILEKATKVNFKQVDDLASVWCQCGELELRHENYDEALRLLRKATALPARRAEYFDGSEPVQNRVYKSLKVWSMLADLEESLGTFQSTKAVYDRILDLRIATPQIVINYAMFLEEHKYFEESFKAYERGISLFKWPNVSDIWSTYLTKFIARYGGRKLERARDLFEQALDGCPPKYAKTLYLLYAQLEEEWGLARHAMAVYERATRAVEPAQQYDMFNIYIKRAAEIYGVTHTRGIYQKAIEVLSDEHAREMCLRFADMECKLGEIDRARAIYSFCSQICDPRTTGAFWQTWKDFEVRHGNEDTIKEMLRIRRSVQATYNTQVNFMASQMLKVSGSATGTVSDLAPGQSGMDDMKLLEQRAEQLAAEAERDQPLRAQSKILFVRSDASREELAELAQQVNPEEIQLGEDEDEDEMDLEPNEVRLEQQSVPAAVFGSLKED
MGSDKIHHHHHHPEQIEKYPSIYPDYIGVTIPATIAPMNFSYTDTSYERIDVIVKGHQGKEVHINAKHVNFPEKEWKQLLNSNQGDSLLFTVSIKQKGKWSTYKPFPMYISPHPIDYGLVYRKIAPGYEVYSRMGIYERDLSSHKERPLVENTLVKGMCVNCHAFNRTDPSHFSLHIRGTHGATFMRTGNKDEYLNTKTDQTIAACVYPYWHPGGEYIAYSTNNTRQSFHTVKDERVEVLDLESDVVVYHPADHHLLLCDSLQKKDRFETFPAFSPDGRTLYFCSAEAKKIPEEYKEIRYNLCSIDFDPSTGTFGSRIDTLVNAEALGKSVSFPRPSYDGKYIMFTLSDYGNFSIWHKEANLWLLDLTSGDLRELSEVNSDDTESFHNWSSNSRWFVFSSRRGDGLYTRLYLASMDENGKISKPFLLPQEDPETYYDRSVYSYNVPDFVNAPILLDTKVFEKRITSKERIQVQVGN
MGSDKIHHHHHHQAEPAPLASAGPAANDPLEGFNRASFKLGMGLDRALLAPITHGYMAVTPRVVRDRVSLVIYNMGEPNTVMNQVLQGKPRQAVRSSTRFVVNSTVGVAGLFDVAAKMGLPPRGADFGQTFGRWGAGPGAYIYVPLMGPLNVRDGVGRALDIVTDPVSLFVGGLDTDFGRARTAITVVDLRATTDSAYEALKDASDPYVTTRSAYAQYREAFVREATGESEALPDFDAPPSEPNTSSATPNP
MGSDKIHHHHHHQNTPIGENIELAGENPEELKVIYINKDVSTHFIAMEDIKYVDISVNDIVGDIPTGNSLRIKPTKEGASGVITIVTERFFVQYMLVYSSDLAKAYTRFNIPYADLRSYMNPEVNLTKAQMYDYAHRMFISKNKFYDVSSTSNLMKIVLNNIYTLDKYFFIDISMINKTKIRYDIDQIRFKIEDKKQTKATNFQSIEILPLMQVNKNLVFKKNYRNIFVFEKFTFPDEKVLTIEISEKQISGRTITLRIDYADILHADAFTE
MGSDKIHHHHHHRNGKTYTQPLTGQATDKIGEQIRELFNIDINPNGPAVKANNYVSTYMKRLYKQLENYEHGENHNEEEVNAWLSADRIVSHMAQEVSHRLDDGSYSIRFAKEHVPAKEGQSIVRAQLRIHIQGIVSPVFFYIEDTNLPGDTVLVSSDDPTVVTDVTTMVDRWSHLQLSTLPIVTARASTNDELKIEAFLVIALKDEDAGPPKKRSR
MGSDKIHHHHHHSCDNKGDYWGAMESSKATLTLERICDMATLSQDSVELLSNILGMNTEELYRTDVVMIGKVTSEETGFYQYPRFLIAKDREMKEVLTEAYVHRDTEGTFYAFLESNMLPVGETYYCAMVDYNYGYNGRPGLLDHVLGGNTRGERYSEVKPFRLSGLPRLVVHDAHFTGYSFYLSAEVRFKSNGGIIEQGACYSSTKRIPTVDDQKTLARETRNYDYSFLEVEVTDLLPNTHYYIRPYVTTEEGTGYGPVVEFTTEPGTEPIIDYFTMYIDTDRSVNLYATFYIDNYQITHYGYSYGIYSPETGTVTDEQKIEVPLEDNHGQQLSKVITGLRPGILYAFRVYAENGVGVTYSGYQTVKIPVE
